Measurements reported in US20250163162A1.

T1: IL10Rα/IL2Rγ receptor (human) (UniProt Q13651)
T1 sequence (looked up) 1: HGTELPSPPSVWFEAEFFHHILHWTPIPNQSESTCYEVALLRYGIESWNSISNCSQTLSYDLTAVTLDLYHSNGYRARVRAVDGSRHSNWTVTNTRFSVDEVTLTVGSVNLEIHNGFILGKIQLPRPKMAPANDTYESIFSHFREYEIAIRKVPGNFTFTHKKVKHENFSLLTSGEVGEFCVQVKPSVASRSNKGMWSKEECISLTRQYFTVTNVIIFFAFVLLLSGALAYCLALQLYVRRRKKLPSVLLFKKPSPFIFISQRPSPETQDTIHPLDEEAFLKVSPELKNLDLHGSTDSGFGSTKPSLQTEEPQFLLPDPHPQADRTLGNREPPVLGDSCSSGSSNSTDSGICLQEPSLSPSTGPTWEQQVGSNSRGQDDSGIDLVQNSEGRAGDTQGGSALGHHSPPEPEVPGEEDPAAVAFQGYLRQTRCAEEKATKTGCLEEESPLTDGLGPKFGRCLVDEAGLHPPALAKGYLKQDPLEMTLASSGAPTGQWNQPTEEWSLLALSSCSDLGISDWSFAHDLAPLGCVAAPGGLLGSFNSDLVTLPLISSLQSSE
T1 sequence (looked up) 2: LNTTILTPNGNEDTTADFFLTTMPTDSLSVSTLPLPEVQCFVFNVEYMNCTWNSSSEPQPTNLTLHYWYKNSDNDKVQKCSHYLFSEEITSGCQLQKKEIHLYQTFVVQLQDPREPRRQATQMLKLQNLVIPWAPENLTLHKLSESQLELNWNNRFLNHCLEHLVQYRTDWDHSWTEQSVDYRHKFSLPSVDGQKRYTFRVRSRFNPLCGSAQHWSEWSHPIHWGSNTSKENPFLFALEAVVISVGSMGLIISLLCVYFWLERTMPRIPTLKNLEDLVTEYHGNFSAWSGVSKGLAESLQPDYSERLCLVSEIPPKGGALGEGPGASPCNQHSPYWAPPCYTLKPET

B1: hIL10Ra_VHH14 - hIL2Rg_VHH19, linker GGGS, tag Fc (bispecific antibody, not shown: a dimerising Fc or GST)
chain: QVQLQESGGGSVQAGGSLRLSCGASGYTYSSYCMGWFRQVPGKEREGVAVIDSDGSTSYADSVKGRFTISKDNGKNTLYLQMNSLKPEDTAMYYCAADLGHYRPPCGVLYLGMDYWGKGTQVTVSSGGGSQVQLQESGGGSVQAGGSLRLSCTASGFTFDDREMNWYRQAPGNECELVSTISSDGSTYYADSVKGRFTISQDNAKNTVYLQMDSVKPEDTAVYYCAADFMIAIQAPGAGCWGQGTQVTVSS
B2: hIL10Ra_VHH14 - hIL2Rg_VHH19, linker GGGS, tag his (bispecific antibody, not shown: small tags and cut ends)
chain: B1 chain
B3: hIL10Ra_VHH14 - hIL2Rg_VHH19, No linker, tag his (bispecific antibody, not shown: small tags and cut ends)
chain: QVQLQESGGGSVQAGGSLRLSCGASGYTYSSYCMGWFRQVPGKEREGVAVIDSDGSTSYADSVKGRFTISKDNGKNTLYLQMNSLKPEDTAMYYCAADLGHYRPPCGVLYLGMDYWGKGTQVTVSSQVQLQESGGGSVQAGGSLRLSCTASGFTFDDREMNWYRQAPGNECELVSTISSDGSTYYADSVKGRFTISQDNAKNTVYLQMDSVKPEDTAVYYCAADFMIAIQAPGAGCWGQGTQVTVSS
B4: hIL10Ra_VHH14 - hIL2Rg_VHH19, linker GS, tag his (bispecific antibody, not shown: small tags and cut ends)
chain: QVQLQESGGGSVQAGGSLRLSCGASGYTYSSYCMGWFRQVPGKEREGVAVIDSDGSTSYADSVKGRFTISKDNGKNTLYLQMNSLKPEDTAMYYCAADLGHYRPPCGVLYLGMDYWGKGTQVTVSSGSQVQLQESGGGSVQAGGSLRLSCTASGFTFDDREMNWYRQAPGNECELVSTISSDGSTYYADSVKGRFTISQDNAKNTVYLQMDSVKPEDTAVYYCAADFMIAIQAPGAGCWGQGTQVTVSS

What follows are binders tested against T1, IL10Rα/IL2Rγ receptor (human) (assay: cell-based or functional assay).

| Binder | Granzyme A secretion, CD8 T cells, at 0 µM | Granzyme A secretion, CD8 T cells, at 0.0001 µM | Granzyme A secretion, CD8 T cells, at 0.001 µM | Granzyme A secretion, CD8 T cells, at 0.01 µM | Granzyme A secretion, CD8 T cells, at 0.1 µM | Granzyme A secretion, CD8 T cells, at 1 µM | Granzyme A secretion, CD8 T cells, at 10 µM | Granzyme A secretion, CD8 T cells, at 100 µM | Granzyme B secretion, CD8 T cells, at 0 µM | Granzyme B secretion, CD8 T cells, at 0.0001 µM |
| --- | --- | --- | --- | --- | --- | --- | --- | --- | --- | --- |
| B1 | 25200 pg/mL | 22100 pg/mL | 25900 pg/mL | 27600 pg/mL | 30000 pg/mL | 29800 pg/mL | 28500 pg/mL | 25700 pg/mL | 77700 pg/mL | 54500 pg/mL |
| B2 | 25200 pg/mL | 19700 pg/mL | 20900 pg/mL | 22300 pg/mL | 23700 pg/mL | 26400 pg/mL | 26500 pg/mL | 27300 pg/mL | 77700 pg/mL | 49300 pg/mL |
| B3 | 25200 pg/mL | 19700 pg/mL | 22300 pg/mL | 22200 pg/mL | 22900 pg/mL | 24400 pg/mL | 26000 pg/mL | 27500 pg/mL | 77700 pg/mL | 49300 pg/mL |
| B4 | 25200 pg/mL | 19900 pg/mL | 22700 pg/mL | 25900 pg/mL | 26100 pg/mL | 27900 pg/mL | 28600 pg/mL | 28400 pg/mL | 77700 pg/mL | 49200 pg/mL |

Same assay, conditions: not given

| Binder | Granzyme B secretion, CD8 T cells, at 0.001 µM | Granzyme B secretion, CD8 T cells, at 0.01 µM | Granzyme B secretion, CD8 T cells, at 0.1 µM | Granzyme B secretion, CD8 T cells, at 1 µM | Granzyme B secretion, CD8 T cells, at 10 µM | Granzyme B secretion, CD8 T cells, at 100 µM | IFNγ secretion, CD8 T cells, at 0 µM | IFNγ secretion, CD8 T cells, at 0.0001 µM | IFNγ secretion, CD8 T cells, at 0.001 µM | IFNγ secretion, CD8 T cells, at 0.01 µM |
| --- | --- | --- | --- | --- | --- | --- | --- | --- | --- | --- |
| B1 | 60900 pg/mL | 79000 pg/mL | 108000 pg/mL | 134000 pg/mL | 151000 pg/mL | 93300 pg/mL | 122000 pg/mL | 104000 pg/mL | 113000 pg/mL | 131000 pg/mL |
| B2 | 45600 pg/mL | 48100 pg/mL | 55300 pg/mL | 72700 pg/mL | 84700 pg/mL | 94600 pg/mL | 122000 pg/mL | 96800 pg/mL | 99600 pg/mL | 107000 pg/mL |
| B3 | 47300 pg/mL | 44200 pg/mL | 54800 pg/mL | 56300 pg/mL | 67100 pg/mL | 74300 pg/mL | 122000 pg/mL | 102000 pg/mL | 104000 pg/mL | 111000 pg/mL |
| B4 | 49400 pg/mL | 55500 pg/mL | 58000 pg/mL | 80200 pg/mL | 87000 pg/mL | 99900 pg/mL | 122000 pg/mL | 91700 pg/mL | 105000 pg/mL | 122000 pg/mL |

Same assay, conditions: not given

| Binder | IFNγ secretion, CD8 T cells, at 0.1 µM | IFNγ secretion, CD8 T cells, at 1 µM | IFNγ secretion, CD8 T cells, at 10 µM | IFNγ secretion, CD8 T cells, at 100 µM | IL-1β secretion, LPS treated monocytes, at 0 µM | IL-1β secretion, LPS treated monocytes, at 0 µM (LPS only) | IL-1β secretion, LPS treated monocytes, at 0.0001 µM | IL-1β secretion, LPS treated monocytes, at 0.001 µM | IL-1β secretion, LPS treated monocytes, at 0.01 µM | IL-1β secretion, LPS treated monocytes, at 0.1 µM |
| --- | --- | --- | --- | --- | --- | --- | --- | --- | --- | --- |
| B1 | 144000 pg/mL | 166000 pg/mL | 157000 pg/mL | 148000 pg/mL | 6240 pg/mL | 6880 pg/mL | 6290 pg/mL | 5570 pg/mL | 5260 pg/mL | 4020 pg/mL |
| B2 | 114000 pg/mL | 130000 pg/mL | 134000 pg/mL | 134000 pg/mL | 6240 pg/mL | 6880 pg/mL | 6420 pg/mL | 6640 pg/mL | 5760 pg/mL | 6120 pg/mL |
| B3 | 111000 pg/mL | 123000 pg/mL | 131000 pg/mL | 134000 pg/mL | 6240 pg/mL | 6880 pg/mL | 5540 pg/mL | 5550 pg/mL | 5370 pg/mL | 5290 pg/mL |
| B4 | 129000 pg/mL | 134000 pg/mL | 143000 pg/mL | 143000 pg/mL | 6240 pg/mL | 6880 pg/mL | 5960 pg/mL | 6270 pg/mL | 5060 pg/mL | 6590 pg/mL |

Same assay, conditions: not given

| Binder | IL-1β secretion, LPS treated monocytes, at 1 µM | IL-1β secretion, LPS treated monocytes, at 10 µM | IL-1β secretion, LPS treated monocytes, at 100 µM | IL-9 secretion, CD8 T cells, at 0 µM | IL-9 secretion, CD8 T cells, at 0.0001 µM | IL-9 secretion, CD8 T cells, at 0.001 µM | IL-9 secretion, CD8 T cells, at 0.01 µM | IL-9 secretion, CD8 T cells, at 0.1 µM | IL-9 secretion, CD8 T cells, at 1 µM | IL-9 secretion, CD8 T cells, at 10 µM |
| --- | --- | --- | --- | --- | --- | --- | --- | --- | --- | --- |
| B1 | 3660 pg/mL | 4140 pg/mL | 6480 pg/mL | 1350 pg/mL | 1060 pg/mL | 1120 pg/mL | 1160 pg/mL | 1420 pg/mL | 1780 pg/mL | 2150 pg/mL |
| B2 | 5350 pg/mL | 5950 pg/mL | 6580 pg/mL | 1350 pg/mL | 941 pg/mL | 1000 pg/mL | 1120 pg/mL | 1340 pg/mL | 1400 pg/mL | 1680 pg/mL |
| B3 | 5800 pg/mL | 5790 pg/mL | 7100 pg/mL | 1350 pg/mL | 933 pg/mL | 1120 pg/mL | 1140 pg/mL | 1070 pg/mL | 1220 pg/mL | 1440 pg/mL |
| B4 | 5760 pg/mL | 6710 pg/mL | 8140 pg/mL | 1350 pg/mL | 918 pg/mL | 998 pg/mL | 1070 pg/mL | 1230 pg/mL | 1610 pg/mL | 1730 pg/mL |

Same assay, conditions: not given

| Binder | IL-9 secretion, CD8 T cells, at 100 µM |
| --- | --- |
| B1 | 1930 pg/mL |
| B2 | 1710 pg/mL |
| B3 | 1670 pg/mL |
| B4 | 1880 pg/mL |
